# Assay results taken from patent US20070224180.
# Marks after values point to notes of the source that are not given here.
# B1: ECE-1 (recombinantly produced endothelin converting enzyme-1) (protein)
# chain: QYQTRSPSVCLSEACVSVTSSILSSMDPTVDPCHDFFSYACGGWIKANPVPDGHSRWGTFSNLWEHNQAIIKHLLENSTASVSEAERKAQVYYRACMNETRIEELRAKPLMELIERLGGWNITGPWAKDNFQDTLQVVTAHYRTSPFFSVYVSADSKNSNSNVIQVDQSGLGLPSRDYYLNKTENEKVLTGYLNYMVQLGKLLGGGDEEAIRPQMQQILDFETALANITIPQEKRRDEELIYHKVTAAELQTLAPAINWLPFLNTIFYPVEINESEPIVVYDKEYLEQISTLINTTDRCLLNNYMIWNLVRKTSSFLDQRFQDADEKFMEVMYGTKKTCLPRWKFCVSDTENNLGFALGPMFVKATFAEDSKSIATEIILEIKKAFEESLSTLKWMDEETRKSAKEKADAIYNMIGYPNFIMDPKELDKVFNDYTAVPDLYFENAMRFFNFSWRVTADQLRKAPNRDQWSMTPPMVNAYYSPTKNEIVFPAGILQAPFYTRSSPKALNFGGIGVVVGHELTHAFDDQGREYDKDGNLRPWWKNSSVEAFKRQTECMVEQYSNYSVNGEPVNGRHTLGENIADNGGLKAAYRAYQNWVKKNGAEHSLPTLGLTNNQLFFLGFAQVWCSVRTPESSHEGLITDPHSPSRFRVIGSLSNSKEFSEHFRCPPGSPMNPPHKCEVW
# B2: His6-tagged IGS5 ectodomain (recombinant soluble His-tagged human IGS5) (protein)
# chain: GSHHHHHHSEVCTTPGCVIAAARILQNMDPTTEPCDDFYQFACGGWLRRHVIPETNSRYSIFDVLRDELEVILKAVLENSTAKDRPAVEKARTLYRSCMNQSVIEKRGSQPLLDILEVVGGWPVAMDRWNETVGLEWELERQLALMNSQFNRRVLIDLFIWNDDQNSSRHIIYIDQPTLGMPSREYYFNGGSNRKVREAYLQFMVSVATLLREDANLPRDSCLVQEDMMQVLELETQLAKATVPQEERHDVIALYHRMGLEELQSQFGLKGFNWTLFIQTVLSSVKIKLLPDEEVVVYGIPYLQNLENIIDTYSARTIQNYLVWRLVLDRIGSLSQRFKDTRVNYRKALFGTMVEEVRWRECVGYVNSNMENAVGSLYVREAFPGDSKSMVRELIDKVRTVFVETLDELGWMDEESKKKAQEKAMSIREQIGHPDYILEEMNRRLDEEYSNLNFSEDLYFENSLQNLKVGAQRSLRKLREKVDPNLWIIGAAVVNAFYSPNRNQIVFPAGILQPPFFSKEQPQALNFGGIGMVIGHEITHGFDDNGRNFDKNGNMMDWWSNFSTQHFREQSECMIYQYGNYSWDLADEQNVNGFNTLGENIADNGGVRQAYKAYLKWMAEGGKDQQLPGLDLTHEQLFFINYAQVWCGSYRPEFAIQSIKTDVHSPLKYRVLGSLQNLAAFADTFHCARGTPMHPKERCRVW
# B3: NEP (recombinantly produced and purified neutral endopeptidase, neprilysin) (protein)
# chain: YDDGICKSSDCIKSAARLIQNMDATTEPCTDFFKYACGGWLKRNVIPETSSRYGNFDILRDELEVVLKDVLQEPKTEDIVAVQKAKALYRSCINESAIDSRGGEPLLKLLPDIYGWPVATENWEQKYGASWTAEKAIAQLNSKYGKKVLINLFVGTDDKNSVNHVIHIDQPRLGLPSRDYYECTGIYKEACTAYVDFMISVARLIRQEERLPIDENQLALEMNKVMELEKEIANATAKPEDRNDPMLLYNKMTLAQIQNNFSLEINGKPFSWLNFTNEIMSTVNISITNEEDVVVYAPEYLTKLKPILTKYSARDLQNLMSWRFIMDLVSSLSRTYKESRNAFRKALYGTTSETATWRRCANYVNGNMENAVGRLYVEAAFAGESKHVVEDLIAQIREVFIQTLDDLTWMDAETKKRAEEKALAIKERIGYPDDIVSNDNKLNNEYLELNYKEDEYFENIIQNLKFSQSKQLKKLREKVDKDEWISGAAVVNAFYSSGRNQIVFPAGILQPPFFSAQQSNSLNYGGIGMVIGHEITHGFDDNGRNFNKDGDLVDWWTQQSASNFKEQSQCMVYQYGNFSWDLAGGQHLNGINTLGENIADNGGLGQAYRAYQNYIKKNGEEKLLPGLDLNHKQLFFLNFAQVWCGTYRPEYAVNSIKTDVHSPGNFRIIGTLQNSAEFSEAFHCRKNSYMNPEKKCRVW
# B4: XCE/DINE (recombinantly produced) (protein)
# chain: KYLGPVAAGGGACPEGCPERKAFARAARFLAANLDASIDPCQDFYSFACGGWLRRHAIPDDKLTYGTIAAIGEQNEERLRRLLARPGGGPGGAAQRKVRAFFRSCLDMREIERLGPRPMLEVIEDCGGWDLGGAEERPGVAARWDLNRLLYKAQGVYSAAALFSLTVSLDDRNSSRYVIRIDQDGLTLPERTLYLAQDEDSEKILAAYRVFMERVLSLLGADAVEQKAQEILQVEQQLANITVSEHDDLRRDVSSMYNKVTLGQLQKITPHLRWKWLLDQIFQEDFSEEEEVVLLATDYMQQVSQLIRSTPHRVLHNYLVWRVVVVLSEHLSPPFREALHELAQEMEGSDKPQELARVCLGQANRHFGMALGALFVHEHFSAASKAKVQQLVEDIKYILGQRLEELDWMDAETRAAARAKLQYMMVMVGYPDFLLKPDAVDKEYEFEVHEKTYFKNILNSIRFSIQLSVKKIRQEVDKSTWLLPPQALNAYYLPNKNQMVFPAGILQPTLYDPDFPQSLNYGGIGTIIGHELTHGYDDWGGQYDRSGNLLHWWTEASYSRFLRKAECIVRLYDNFTVYNQRVNGKHTLGENIADMGGLKLAYHAYQKWVREHGPEHPLPRLKYTHDQLFFIAFAQNWCIKRRSQSIYLQVLTDKHAPEHYRVLGSVSQFEEFGRAFHCPKDSPMNPAHKCSVW
# Assays:
# PACAP(1-27) = molecular target: T1, PACAP(1-27)
# T1 chain: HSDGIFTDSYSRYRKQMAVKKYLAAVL
# [1] = molecular target: T2, Fluorescence-quenched Big-ET-1 analogue (17 aa Big-ET)
# T2 chain: DIAWFXTPEHVVPYGLG
# [2] = molecular target: T3, atrial natriuretic peptide (ANP), P01160
# T3 chain: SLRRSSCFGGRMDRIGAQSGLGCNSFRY
# [3] = molecular target: T4, big endothelin (Big ET-1), P05305
# T4 chain: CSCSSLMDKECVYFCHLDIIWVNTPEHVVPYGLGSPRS
# [4] = molecular target: T5, endothelin (ET-1), P05305
# T5 chain: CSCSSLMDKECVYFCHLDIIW
# substance P, P20366 = molecular target: T6, substance P, P20366
# T6 chain: RPKPQQFFGLM
# bradykinin, P01042, sequence (P01042 whole entry, looked up): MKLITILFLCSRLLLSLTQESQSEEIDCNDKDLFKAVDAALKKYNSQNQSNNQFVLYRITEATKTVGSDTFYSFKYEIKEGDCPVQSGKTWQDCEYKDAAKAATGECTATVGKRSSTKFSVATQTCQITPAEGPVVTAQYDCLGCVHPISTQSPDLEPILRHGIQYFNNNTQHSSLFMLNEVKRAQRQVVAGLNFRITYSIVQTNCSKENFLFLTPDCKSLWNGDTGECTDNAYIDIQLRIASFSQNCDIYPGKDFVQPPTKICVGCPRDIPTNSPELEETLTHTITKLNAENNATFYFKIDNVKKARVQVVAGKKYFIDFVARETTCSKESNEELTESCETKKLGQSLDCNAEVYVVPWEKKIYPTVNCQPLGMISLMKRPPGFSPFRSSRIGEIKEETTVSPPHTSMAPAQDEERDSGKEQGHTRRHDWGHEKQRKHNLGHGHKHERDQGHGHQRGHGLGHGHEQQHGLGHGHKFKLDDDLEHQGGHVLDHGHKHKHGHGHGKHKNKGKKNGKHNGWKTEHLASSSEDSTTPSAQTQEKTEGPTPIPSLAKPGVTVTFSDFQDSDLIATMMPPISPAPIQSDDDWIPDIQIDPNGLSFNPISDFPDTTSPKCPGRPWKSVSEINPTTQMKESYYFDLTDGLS
# angiotensin-1, P01019, sequence (P01019 whole entry, looked up): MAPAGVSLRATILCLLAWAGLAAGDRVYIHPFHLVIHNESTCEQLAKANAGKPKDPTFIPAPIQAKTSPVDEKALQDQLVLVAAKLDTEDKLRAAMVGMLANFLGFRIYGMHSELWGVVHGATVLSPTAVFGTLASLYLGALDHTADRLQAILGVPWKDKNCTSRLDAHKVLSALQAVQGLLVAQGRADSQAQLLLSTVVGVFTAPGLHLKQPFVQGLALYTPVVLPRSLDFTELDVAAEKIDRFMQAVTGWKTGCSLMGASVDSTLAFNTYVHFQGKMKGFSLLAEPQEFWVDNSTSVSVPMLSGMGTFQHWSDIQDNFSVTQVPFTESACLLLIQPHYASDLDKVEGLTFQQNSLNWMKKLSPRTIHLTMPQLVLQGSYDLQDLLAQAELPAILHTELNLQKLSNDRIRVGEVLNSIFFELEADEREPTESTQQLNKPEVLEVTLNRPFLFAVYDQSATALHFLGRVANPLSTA
protein,measurement,setting,value
B1,"cleavage of PACAP(1-27), HPLC",PACAP(1-27),None of the aforementioned enzymes was able to cleave PACAP(1-27) under the assay conditions as described above for IGS5
B2,% Hydrolysis,[1],41%
same,% Hydrolysis,PACAP(1-27),69%
same,"% Hydrolysis (100 ng IGS5 polypeptide; 0.5 µM substrate; 2 h, 37° C.)","angiotensin-1, P01019",15%
same,"% Hydrolysis (100 ng IGS5 polypeptide; 0.5 µM substrate; 2 h, 37° C.)",[2],5%
same,% Hydrolysis (*500 ng IGS5 polypeptide),[2],80%
same,% Hydrolysis,[3],(?)****
same,"% Hydrolysis (100 ng IGS5 polypeptide; 0.5 µM substrate; 2 h, 37° C.)","bradykinin, P01042",100%
same,% Hydrolysis (**10 ng IGS5 polypeptide),"bradykinin, P01042",62%
same,"% Hydrolysis (100 ng IGS5 polypeptide; 0.5 µM substrate; 2 h, 37° C.)",[4],< 30%
same,"% Hydrolysis (100 ng IGS5 polypeptide; 0.5 µM substrate; 2 h, 37° C.)","substance P, P20366",100%
B3,"cleavage of PACAP(1-27), HPLC",PACAP(1-27),None of the aforementioned enzymes was able to cleave PACAP(1-27) under the assay conditions as described above for IGS5
B4,"cleavage of PACAP(1-27), HPLC",PACAP(1-27),None of the aforementioned enzymes was able to cleave PACAP(1-27) under the assay conditions as described above for IGS5
